{
  "source": "the nanobody polyreactivity screen of Harvey et al. (2022)",
  "data": [
    {"assay": "yeast display, Sf9 membrane polyspecificity reagent, FACS + sequencing; frameworks hold sequencing errors", "procedure,_shortened": "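Using colony PCR, genes from sorted yeast display clones were amplified, then sequenced on MiSeq at 2 × 250 and filtered by CDR length. The clones had been stained with 10% biotinylated, detergent-solubilized Sf9 membrane reagent for 1 hour at 4 °C and sorted by FACS into low and high (top ~1%) gates on anti-HA and streptavidin fluorescence. Polyreactivity labels come from the gate of origin.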", "values": [
      {"sequence": "QVQLVESGGGLVQAGGSLRLSCAASGSIFSSYAMGWYRQAPGKERELVAAITSGGSTYYADSVKGRFTISRDNAKNTVYLQMNSLKPEDTAVYYCAAYRSYFGYDYWGQGTQVTVSS", "polyreactivity (PSR sort gate)": "low polyreactivity"},
      {"sequence": "QVQLVESGGGLVQAGGSLRLSCAASGSIFSSYAMGWYRQAPGKERELVASISWRSGSTYYADSVKGRFTISRDNAKNTVYLQMNSLKPEDTAVYYCATAYYRYYKYRFYYWGQGTQVTVSS", "polyreactivity (PSR sort gate)": "high polyreactivity"},
      {"sequence": "QVQLVESGGGLVQAGGSLRLSCAASGSIFSSYAMGWYRQAPGKEREMVAAITYSGGRTYYADSVKGRFTISRDNAKNTVYLQMNSLKPEDTAVYYCNARKYVGFWSRYDYWGQGTQVTVSS", "polyreactivity (PSR sort gate)": "high polyreactivity"},
      {"sequence": "QVQLVESGGGLVQAGGSLRLSCAASGSIFSSYSMGWYRQAPGKERELVAAIDGSGGSTYADSVKGRFTISRDNAKNTVYLQMNSLKPEDTAVYYCAVDSFLVYSAVRPYDYWGHGTQVTVSS", "polyreactivity (PSR sort gate)": "low polyreactivity"},
      {"sequence": "QVQLVESGGGLVQAGGSLRLSCAASGSIFSTNAMGCYIQAPGKERELVAVITGIGGITYYADSVKGRFTISRDNAKNTVYVQMNSLKPEDTAVYYCAADPISEFYWGVKDRYDYWGQGTQVTVST", "polyreactivity (PSR sort gate)": "low polyreactivity"},
      {"sequence": "QVQLVESGGGLVQAGGSLRLSCAASGSIFSTNAMGWYRQAPGKERELVATISGADGTNYADSVKGRFTISRDNAKNTVYLQMNSLKPEDTAVYYSNAFPWPVYRGYYWGQGTQVTVSS", "polyreactivity (PSR sort gate)": "low polyreactivity"},
      {"sequence": "QVQLVESGGGLVQAGGSLRLSCAASGSIFSTNAMGWYRQAPWKERELVAGISSDDSTYADSVKGRFTISRDNAKNTVNLQMNSLKPEDTAVYNCAAEDNWYNVGYYYRGQGTQVTVSS", "polyreactivity (PSR sort gate)": "low polyreactivity"},
      {"sequence": "QVQLVESGGGLVQAGGSLRLSCAASGSIFSTNGMGWYRQAPGKERELVAAISTGGRTYYADSVKGRFTISRDNAKNTVYLQMNSLKPEDTAVYYCAKRFGYRSTQILDYWGQGTQVTVSS", "polyreactivity (PSR sort gate)": "low polyreactivity"},
      {"sequence": "QVQLVESGGGLVQAGGSLRLSCAASGSIFSTYAMGWYRQAPGKERELVAAISKSGGSTYYADSVKGRFTISRDNAKNTVYLQMNSLKPEDTAVYYCAATRWYGYKRWGYDYWGQGTQVTVSS", "polyreactivity (PSR sort gate)": "high polyreactivity"},
      {"sequence": "QVQLVESGGGLVQAGGSLRLSCAASGSIFSTYAMGWYRQAPGKERELVAAISQGGSSTYYADSVKGRFTISRDNAKNTVYLQMNSLKPEDTAVYYCATPYSWYHRVYGYDYWGQGTQVTVSS", "polyreactivity (PSR sort gate)": "high polyreactivity"},
      {"sequence": "QVQLVESGGGLVQAGGSLRLSCAASGSIFSVYAMGWYRQAPGKERELVASITSGGRTKYADSVKGRFTISRDNAKNTVYLQMNSLKQEDTAVYYCAKDGGGLLRWYTDEYDYWGQGTQVTVSS", "polyreactivity (PSR sort gate)": "low polyreactivity"},
      {"sequence": "QVQLVESGGGLVQAGGSLRLSCAASGSIFSVYAMGWYRQAPGKERELVATISGSAGRTYYADSVKGRFTISRDNAKNTVYLQMNSLKPEDTAVYYCAARWYKEYYWGQRTQVTVSS", "polyreactivity (PSR sort gate)": "high polyreactivity"},
      {"sequence": "QVQLVESGGGLVQAGGSLRLSCAASGSIFSVYARGSYRQAPGKERELVAGITRGGSTYADSVKGRFTISRDNAKNPVYLQMNSLKPEDTAVYYCNAQTRIVKDRLRSDYWGQGTQVTVSS", "polyreactivity (PSR sort gate)": "high polyreactivity"},
      {"sequence": "QVQLVESGGGLVQAGGSLRLSCAASGSIFSWYAMGWYRQAPGKERELVATITWRGGSTYYADSVKGRFTISRDNAKNTVYLQMNSLKPEDTAVYYCAARVPDPYTSYRYPPYYYWGQGTQVTVSS", "polyreactivity (PSR sort gate)": "low polyreactivity"},
      {"sequence": "QVQLVESGGGLVQAGGSLRLSCAASGSIFSYAMGWYRQAPGKERELVAAISRRGGRTYYADSVKGRFTISRDNEKYTVYLQMNSLKPEDTAVYYCAASGRNRKDGLYEYYYWGQGTQVTVSS", "polyreactivity (PSR sort gate)": "high polyreactivity"},
      {"sequence": "QVQLVESGGGLVQAGGSLRLSCAASGSIFSYNAMGWYRQAPGKERELFAAITWSGGSTYYADSVKGRFTISRDNAKNTVYLQMNSLKPEDTAVYYCAAKGGYSTGRPTYTKFNYWGQGTQVTVSS", "polyreactivity (PSR sort gate)": "high polyreactivity"},
      {"sequence": "QVQLVESGGGLVQAGGSLRLSCAASGSIFSYNAMGWYRQAPGKERELVAAINNGGSTYYADSVKGRFTISRDNAKNTVYLQMNSLKPEDTAVYYCNTARRHCQTQGGDYWGQGTQVTVSS", "polyreactivity (PSR sort gate)": "high polyreactivity"},
      {"sequence": "QVQLVESGGGLVQAGGSLRLSCAASGSIFSYNLMGWYRQAPGKERELVAAITRSCGSTYYADSVKGRFTISRDNAKNTVYLQMNSLKQEDTAVYYCAVGWADQDPFIMDFWGQGTQVTVSS", "polyreactivity (PSR sort gate)": "low polyreactivity"},
      {"sequence": "QVQLVESGGGLVQAGGSLRLSCAASGSIFSYNVMGGYRQAPGKERELVAVITGSGGSTYYADSVKGRFTISRDNAKNTVYLQMNSLKPEDTAVYYCNKDRGTIPPSGNDYWGQGTLVTVSS", "polyreactivity (PSR sort gate)": "low polyreactivity"},
      {"sequence": "QVQLVESGGGLVQAGGSLRLSCAASGSIFSYYAMGWYRQAPGKERELVAAISLSTSGTHYADSVKGRFTISRDNAKNTVYLQMNSLKPEDTAVYYCAARQGYPVFLYNSRYGYWGQGTQVTVSS", "polyreactivity (PSR sort gate)": "low polyreactivity"},
      {"sequence": "QVQLVESGGGLVQAGGSLRLSCAASGSIFSYYAMGWYRQAPGKERELVAAISQNGGSTYYADSVKGRFTISRDNAKNTVYLQMNSLKPEDTAVYYCNAYSVYVRGEYWGQGTQVTVSS", "polyreactivity (PSR sort gate)": "high polyreactivity"},
      {"sequence": "QVQLVESGGGLVQAGGSLRLSCAASGSIFSYYAMGWYRQAPGKERELVAAISQNGGSTYYADSVKGRFTNSRDNAKNSVSFQMNRLKAEETAVYYCYAYSVYVRGEYWGQGTQVTVSS", "polyreactivity (PSR sort gate)": "high polyreactivity"},
      {"sequence": "QVQLVESGGGLVQAGGSLRLSCAASGSIFSYYAMGWYRQAPGKERELVAAISRSGASTSYADSVKGRFTISRDNAKNTVYLQMNSLKPEDTAVYYCAKRIYWRGSWGRYYYWGQGTQVTVSS", "polyreactivity (PSR sort gate)": "high polyreactivity"},
      {"sequence": "QVQLVESGGGLVQAGGSLRLSCAASGSIFSYYAMGWYRQAPGKERELVAAITWSGTRTYYADSVKGRFTISRDNAKNTVYLQMNSLKPEDTAVSYCAADSSIRDAYWGQGTQVTVSS", "polyreactivity (PSR sort gate)": "low polyreactivity"},
      {"sequence": "QVQLVESGGGLVQAGGSLRLSCAASGSIFSYYAMGWYRQAPGKERELVADISFTGDSTYYADSVKGRFTISRDNAKNTVYLQMNSLKPEDTAVYYCAKDEIIAVYFEYDYWGQGTQVTVSS", "polyreactivity (PSR sort gate)": "low polyreactivity"},
      {"sequence": "QVQLVESGGGLVQAGGSLRLSCAASGSIFSYYAMGWYRQAPGKERELVASISWNGTSTYYADSVKGRFTISRDNAKNTVYLQMNSLKPEDTAVYYCNAVLSGWGYFYGLNYWGQGTQVTVSS", "polyreactivity (PSR sort gate)": "low polyreactivity"},
      {"sequence": "QVQLVESGGGLVQAGGSLRLSCAASGSIFSYYDMGWYRQAPGKERELVADISSTGGSTYYADSVKGRFTISRDNAKNTVSIQMNSLKPEDTAVYYCAAEIGYWGQGTQVTVSS", "polyreactivity (PSR sort gate)": "high polyreactivity"},
      {"sequence": "QVQLVESGGGLVQAGGSLRLSCAASGSIFSYYSMGWYRQAPGKERELVAAITSGDGTNYADSVKGRFTISRDYAKNTVYLQMNSLKPEDTAVYYCAADAVDSYWREDYWGQGTQVTVSS", "polyreactivity (PSR sort gate)": "low polyreactivity"},
      {"sequence": "QVQLVESGGGLVQAGGSLRLSCAASGSIFSYYVMGWYRQAPGKERELVAAISWSGGSTYYADSVKGRFTISRDNAKNTVYLQMNSLKPEDTAVYYCAAGTYPYYWGQGTQVTVSS", "polyreactivity (PSR sort gate)": "low polyreactivity"},
      {"sequence": "QVQLVESGGGLVQAGGSLRLSCAASGSIFSYYVMGWYRQAPGKERELVAAISYSGGRTYYADSVKGRFTISRDNAKNTVYLQMNSLKPEDTAVYYCAASRRVGEVSYYYWGQGTQVTVSS", "polyreactivity (PSR sort gate)": "high polyreactivity"},
      {"sequence": "QVQLVESGGGLVQAGGSLRLSCAASGSIFSYYVMGWYRQAPGKERELVAAITRSGGSTYYADSVKGRFTISRDNAKNTVYLQMNSLKPEDTAVYDCNALWRVRGDYWGQGTQVTVSS", "polyreactivity (PSR sort gate)": "high polyreactivity"},
      {"sequence": "QVQLVESGGGLVQAGGSLRLSCAASGSIFTCNAMGWYRQAPGKERELVAAISYISGGTYYADSVKGRFTISRDNAKNTVYLQMNSLKPEDTAVYYCAAVVYYYTYHYWGQGTQGTVSS", "polyreactivity (PSR sort gate)": "low polyreactivity"},
      {"sequence": "QVQLVESGGGLVQAGGSLRLSCAASGSIFTFNAMGWYRQAPGKEREFVAAITRSGGRTYYADSVKGRFTISRDNAKNTVYLQMNSLKPEDTAVYYCAARPRGKYDYWGQGTQVTVSS", "polyreactivity (PSR sort gate)": "high polyreactivity"},
      {"sequence": "QVQLVESGGGLVQAGGSLRLSCAASGSIFTFYALGWYRQAPGQERELVAAISYSGGSTYYADSVTGRFTISRDNAKITVYLQMNSLKPEDTAVFYCARDYFVDGPGYDYWGQGTQVTVSS", "polyreactivity (PSR sort gate)": "low polyreactivity"},
      {"sequence": "QVQLVESGGGLVQAGGSLRLSCAASGSIFTFYAMGWYRQAPGKERELVAAISWSGGSTYYADSVKGRFTISRDNAKNTVYLQMNSLKPEDTAVYYCAARYYVYSSRAQYHHYDYWGQGTQVTVSS", "polyreactivity (PSR sort gate)": "high polyreactivity"},
      {"sequence": "QVQLVESGGGLVQAGGSLRLSCAASGSIFTFYTMGWYRQAPGKERELVAAISQTGGRTYYADSVKGRFTISRDTAKNTVYLQMNSLKPEDTAVYYCDADYYYDISDWVYEYYYWGQGTQVTVSS", "polyreactivity (PSR sort gate)": "high polyreactivity"},
      {"sequence": "QVQLVESGGGLVQAGGSLRLSCAASGSIFTFYTMGWYRQAPGKERELVATIRWSVGSTYYADSVKGRFTISRDNAKNTVYLQMNSLKPEDTAVYYCAADSQWSYPDYPGEYAYDYWGQGTQVSVSS", "polyreactivity (PSR sort gate)": "low polyreactivity"},
      {"sequence": "QVQLVESGGGLVQAGGSLRLSCAASGSIFTGNAMGWYRQAPGKERELVAAIRRSGA", "polyreactivity (PSR sort gate)": "low polyreactivity"},
      {"sequence": "QVQLVESGGGLVQAGGSLRLSCAASGSIFTGNAMGWYRQAPGKERELVAAISSTGTTNYADSVKGRFTISRDNAKNTVYLQMNSLKPEDTAVYYCARRWYSTWWYGYWGQGTQVTVSS", "polyreactivity (PSR sort gate)": "high polyreactivity"},
      {"sequence": "QVQLVESGGGLVQAGGSLRLSCAASGSIFTGNAMGWYRQAPGKERELVAAITRTGSTNYADSVKGRFTISRDNAKNTVYLQMNSLKPEDTAVYYCATDRTFTISNYDYWGQGTQVTVSS", "polyreactivity (PSR sort gate)": "low polyreactivity"},
      {"sequence": "QVQLVESGGGLVQAGGSLRLSCAASGSIFTGNAMGWYRQAPGKERELVASSTTTTDSTYYADSVKGRFTISRDNAKNTVYLQMNSLKPEDTAVYYCAAEYAVAWKYGLYFYFHFDYWGQGTQVTVSS", "polyreactivity (PSR sort gate)": "low polyreactivity"},
      {"sequence": "QVQLVESGGGLVQAGGSLRLSCAASGSIFTGYAMGWYRQAPGKERELVAAISRSGGRTYYADSVKGRFTISRDNAKYTVYLQMNRLKPEDTAVYYCNSVVSPWNQGYYYWGQGTQVTVSS", "polyreactivity (PSR sort gate)": "high polyreactivity"},
      {"sequence": "QVQLVESGGGLVQAGGSLRLSCAASGSIFTINTMGWYRPAPGKERELVAAITGSGGITYYADSVKGRFTISRDYAKNTVYLQLNTLKPEDTAVYYCAADYWWTIPEEPQGLGAVDYWGLGTQVTVSS", "polyreactivity (PSR sort gate)": "low polyreactivity"}
    ]}
  ]
}
